Fewer inactive variants are shown than the library holds.
What was measured:
biotinyl-Val-oxazolone = experiment: self-aminoacylation, catalytic enhancement (BVO) (fold over background); higher = more active; k-Seq, kA / k0A0; sequences stand for … in GGGAAUGGAUCCACAUCUACGAAUUC…UUCACUGCAGACUUGACGAAGCUG
Outline: (§1)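 Working in 50 μL HEPES/NaCl/KCl/MgCl2/CaCl2 buffer with 5% acetonitrile at pH 6.9–7.0, mutagenized RNA pools (0.43 μM; 21-nt variable region) were reacted with 2–1250 μM of each biotinyl-aminoacyl-oxazolone for 90 minutes at room temperature. Streptavidin capture followed, with quantification by triplicate qPCR and Illumina sequencing. Catalytic enhancement is reported as median kA over the uncatalyzed rate, the low-activity peak of a bimodal Gaussian fit to the data.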

biotinyl-Met-oxazolone = experiment: self-aminoacylation, catalytic enhancement (BMO) (fold over background); higher = more active; k-Seq, kA / k0A0; sequences stand for … in GGGAAUGGAUCCACAUCUACGAAUUC…UUCACUGCAGACUUGACGAAGCUG
Outline: as §1

biotinyl-Phe-oxazolone = experiment: self-aminoacylation, catalytic enhancement (BFO) (fold over background); higher = more active; k-Seq, kA / k0A0; sequences stand for … in GGGAAUGGAUCCACAUCUACGAAUUC…UUCACUGCAGACUUGACGAAGCUG
Outline: as §1

biotinyl-Trp-oxazolone = experiment: self-aminoacylation, catalytic enhancement (BWO) (fold over background); higher = more active; k-Seq, kA / k0A0; sequences stand for … in GGGAAUGGAUCCACAUCUACGAAUUC…UUCACUGCAGACUUGACGAAGCUG
Outline: as §1

biotinyl-Leu-oxazolone = experiment: self-aminoacylation, catalytic enhancement (BLO) (fold over background); higher = more active; k-Seq, kA / k0A0; sequences stand for … in GGGAAUGGAUCCACAUCUACGAAUUC…UUCACUGCAGACUUGACGAAGCUG
Outline: as §1

biotinyl-Ile-oxazolone = experiment: self-aminoacylation, catalytic enhancement (BIO) (fold over background); higher = more active; k-Seq, kA / k0A0; sequences stand for … in GGGAAUGGAUCCACAUCUACGAAUUC…UUCACUGCAGACUUGACGAAGCUG
Outline: as §1

Sequence: AUUCACCUAGGUCAGUGGGUG [Fam2.2 aminoacylation ribozyme variant]
- self-aminoacylation (biotinyl-Val-oxazolone): 0.999
- self-aminoacylation (biotinyl-Met-oxazolone): 1
- self-aminoacylation (biotinyl-Phe-oxazolone): 1.08
- self-aminoacylation (biotinyl-Trp-oxazolone): 0.885
- self-aminoacylation (biotinyl-Leu-oxazolone): 1.26
- self-aminoacylation (biotinyl-Ile-oxazolone): 0.904

Sequence: AAUUUUGCUACUAGUCGCAAG [Fam3.1 aminoacylation ribozyme variant]
- self-aminoacylation (biotinyl-Val-oxazolone): 1.74
- self-aminoacylation (biotinyl-Met-oxazolone): 1.53
- self-aminoacylation (biotinyl-Phe-oxazolone): 2.25
- self-aminoacylation (biotinyl-Trp-oxazolone): 2.5
- self-aminoacylation (biotinyl-Leu-oxazolone): 1.54
- self-aminoacylation (biotinyl-Ile-oxazolone): 1.87

Sequence: AUUACCCUGGUCAUCUAUUGA [Fam2.1 aminoacylation ribozyme variant]
- self-aminoacylation (biotinyl-Val-oxazolone): 1.11
- self-aminoacylation (biotinyl-Met-oxazolone): 0.879
- self-aminoacylation (biotinyl-Phe-oxazolone): 0.868
- self-aminoacylation (biotinyl-Trp-oxazolone): 0.789
- self-aminoacylation (biotinyl-Leu-oxazolone): 0.839
- self-aminoacylation (biotinyl-Ile-oxazolone): 1.08

Sequence: AAGUUUGCUAAAAGUAGCAAG [Fam3.1 aminoacylation ribozyme variant]
- self-aminoacylation (biotinyl-Val-oxazolone): 0.783
- self-aminoacylation (biotinyl-Met-oxazolone): 1.16
- self-aminoacylation (biotinyl-Phe-oxazolone): 1.04
- self-aminoacylation (biotinyl-Trp-oxazolone): 1.03
- self-aminoacylation (biotinyl-Leu-oxazolone): 0.818
- self-aminoacylation (biotinyl-Ile-oxazolone): 1.02

Sequence: AUUACCUUGGUCAUGGAGUGA [Fam2.1 aminoacylation ribozyme variant]
- self-aminoacylation (biotinyl-Val-oxazolone): 2.72
- self-aminoacylation (biotinyl-Met-oxazolone): 4.16
- self-aminoacylation (biotinyl-Phe-oxazolone): 4.26
- self-aminoacylation (biotinyl-Trp-oxazolone): 5.57
- self-aminoacylation (biotinyl-Leu-oxazolone): 4.42
- self-aminoacylation (biotinyl-Ile-oxazolone): 2.97

Sequence: AGUACCCUGGUCAUCGAGAGA [Fam2.1 aminoacylation ribozyme variant]
- self-aminoacylation (biotinyl-Val-oxazolone): 0.901
- self-aminoacylation (biotinyl-Met-oxazolone): 0.888
- self-aminoacylation (biotinyl-Phe-oxazolone): 1.36
- self-aminoacylation (biotinyl-Trp-oxazolone): 0.788
- self-aminoacylation (biotinyl-Leu-oxazolone): 1.14
- self-aminoacylation (biotinyl-Ile-oxazolone): 0.994

Sequence: GCAUACUUCAAGCAAUCGGUC [Fam1B.1 aminoacylation ribozyme variant]
- self-aminoacylation (biotinyl-Val-oxazolone): 2.01
- self-aminoacylation (biotinyl-Met-oxazolone): 2.03
- self-aminoacylation (biotinyl-Phe-oxazolone): 19.8
- self-aminoacylation (biotinyl-Trp-oxazolone): 18
- self-aminoacylation (biotinyl-Leu-oxazolone): 2.19
- self-aminoacylation (biotinyl-Ile-oxazolone): 2.35

Sequence: CUACUUCAUACAAUCGGUCUA [Fam1A.1 aminoacylation ribozyme variant]
- self-aminoacylation (biotinyl-Val-oxazolone): 0.703
- self-aminoacylation (biotinyl-Met-oxazolone): 0.926
- self-aminoacylation (biotinyl-Phe-oxazolone): 0.751
- self-aminoacylation (biotinyl-Trp-oxazolone): 0.555
- self-aminoacylation (biotinyl-Leu-oxazolone): 0.68
- self-aminoacylation (biotinyl-Ile-oxazolone): 0.835

Sequence: CCACAAUUUAAGCAAUCGGUC [Fam1B.1 aminoacylation ribozyme variant]
- self-aminoacylation (biotinyl-Val-oxazolone): 1.02
- self-aminoacylation (biotinyl-Met-oxazolone): 0.776
- self-aminoacylation (biotinyl-Phe-oxazolone): 1.12
- self-aminoacylation (biotinyl-Trp-oxazolone): 0.864
- self-aminoacylation (biotinyl-Leu-oxazolone): 0.824
- self-aminoacylation (biotinyl-Ile-oxazolone): 1.2

Sequence: AUUCACCAAGGUCCUCGGGUG [Fam2.2 aminoacylation ribozyme variant]
- self-aminoacylation (biotinyl-Val-oxazolone): 5.39
- self-aminoacylation (biotinyl-Met-oxazolone): 8.8
- self-aminoacylation (biotinyl-Phe-oxazolone): 76.6
- self-aminoacylation (biotinyl-Trp-oxazolone): 8.35
- self-aminoacylation (biotinyl-Leu-oxazolone): 11
- self-aminoacylation (biotinyl-Ile-oxazolone): 4.66

Sequence: AAGUUUGUUAAUAGUCGCACG [Fam3.1 aminoacylation ribozyme variant]
- self-aminoacylation (biotinyl-Val-oxazolone): 0.925
- self-aminoacylation (biotinyl-Met-oxazolone): 1.12
- self-aminoacylation (biotinyl-Phe-oxazolone): 1.4
- self-aminoacylation (biotinyl-Trp-oxazolone): 1.04
- self-aminoacylation (biotinyl-Leu-oxazolone): 1.22
- self-aminoacylation (biotinyl-Ile-oxazolone): 1.04

Sequence: AUACUUCAAACACUCGGUCUG [Fam1A.1 aminoacylation ribozyme variant]
- self-aminoacylation (biotinyl-Val-oxazolone): 0.821
- self-aminoacylation (biotinyl-Met-oxazolone): 0.83
- self-aminoacylation (biotinyl-Phe-oxazolone): 1.31
- self-aminoacylation (biotinyl-Trp-oxazolone): 0.981
- self-aminoacylation (biotinyl-Leu-oxazolone): 0.917
- self-aminoacylation (biotinyl-Ile-oxazolone): 1.06

Sequence: AAGUUUGCUUAUAAUCGCAAG [Fam3.1 aminoacylation ribozyme variant]
- self-aminoacylation (biotinyl-Val-oxazolone): 0.815
- self-aminoacylation (biotinyl-Met-oxazolone): 0.688
- self-aminoacylation (biotinyl-Phe-oxazolone): 1.03
- self-aminoacylation (biotinyl-Trp-oxazolone): 1.02
- self-aminoacylation (biotinyl-Leu-oxazolone): 0.739
- self-aminoacylation (biotinyl-Ile-oxazolone): 0.833

Sequence: AAGUUUGCUAACAGUCGCAUG [Fam3.1 aminoacylation ribozyme variant]
- self-aminoacylation (biotinyl-Val-oxazolone): 0.899
- self-aminoacylation (biotinyl-Met-oxazolone): 0.804
- self-aminoacylation (biotinyl-Phe-oxazolone): 0.642
- self-aminoacylation (biotinyl-Trp-oxazolone): 1.11
- self-aminoacylation (biotinyl-Leu-oxazolone): 0.89
- self-aminoacylation (biotinyl-Ile-oxazolone): 0.963

Sequence: AUUACCCUGGACAUCGCGUGA [Fam2.1 aminoacylation ribozyme variant]
- self-aminoacylation (biotinyl-Val-oxazolone): 5.5
- self-aminoacylation (biotinyl-Met-oxazolone): 9.04
- self-aminoacylation (biotinyl-Phe-oxazolone): 80
- self-aminoacylation (biotinyl-Trp-oxazolone): 9.83
- self-aminoacylation (biotinyl-Leu-oxazolone): 9.65
- self-aminoacylation (biotinyl-Ile-oxazolone): 4.42

Sequence: CUUCUUCUAACAAUCGGUCUG [Fam1A.1 aminoacylation ribozyme variant]
- self-aminoacylation (biotinyl-Val-oxazolone): 0.729
- self-aminoacylation (biotinyl-Met-oxazolone): 0.623
- self-aminoacylation (biotinyl-Phe-oxazolone): 0.727
- self-aminoacylation (biotinyl-Trp-oxazolone): 0.581
- self-aminoacylation (biotinyl-Leu-oxazolone): 0.571
- self-aminoacylation (biotinyl-Ile-oxazolone): 0.732

Sequence: AAGAGUGCUAAUAGUCGCAAG [Fam3.1 aminoacylation ribozyme variant]
- self-aminoacylation (biotinyl-Val-oxazolone): 1.73
- self-aminoacylation (biotinyl-Met-oxazolone): 1.82
- self-aminoacylation (biotinyl-Phe-oxazolone): 3.44
- self-aminoacylation (biotinyl-Trp-oxazolone): 1.89
- self-aminoacylation (biotinyl-Leu-oxazolone): 2.19
- self-aminoacylation (biotinyl-Ile-oxazolone): 2.29

Sequence: AUUAUCAUGGUCAUCGAGUGA [Fam2.1 aminoacylation ribozyme variant]
- self-aminoacylation (biotinyl-Val-oxazolone): 3.44
- self-aminoacylation (biotinyl-Met-oxazolone): 6.24
- self-aminoacylation (biotinyl-Phe-oxazolone): 10.8
- self-aminoacylation (biotinyl-Trp-oxazolone): 8.2
- self-aminoacylation (biotinyl-Leu-oxazolone): 6.75
- self-aminoacylation (biotinyl-Ile-oxazolone): 3.56

Sequence: CUCCUUCAAACAAUCGAUCUG [Fam1A.1 aminoacylation ribozyme variant]
- self-aminoacylation (biotinyl-Val-oxazolone): 0.705
- self-aminoacylation (biotinyl-Met-oxazolone): 0.571
- self-aminoacylation (biotinyl-Phe-oxazolone): 2.82
- self-aminoacylation (biotinyl-Trp-oxazolone): 1.2
- self-aminoacylation (biotinyl-Leu-oxazolone): 0.589
- self-aminoacylation (biotinyl-Ile-oxazolone): 0.586

Sequence: AUUCACUUAGGCCAUCGGGUG [Fam2.2 aminoacylation ribozyme variant]
- self-aminoacylation (biotinyl-Val-oxazolone): 2.65
- self-aminoacylation (biotinyl-Met-oxazolone): 3.04
- self-aminoacylation (biotinyl-Phe-oxazolone): 16
- self-aminoacylation (biotinyl-Trp-oxazolone): 3.26
- self-aminoacylation (biotinyl-Leu-oxazolone): 3.9
- self-aminoacylation (biotinyl-Ile-oxazolone): 2.53

Sequence: CUGCUUCAAACAAUCGGUCUA [Fam1A.1 aminoacylation ribozyme variant]
- self-aminoacylation (biotinyl-Val-oxazolone): 1.34
- self-aminoacylation (biotinyl-Met-oxazolone): 1.33
- self-aminoacylation (biotinyl-Phe-oxazolone): 80.1
- self-aminoacylation (biotinyl-Trp-oxazolone): 38.8
- self-aminoacylation (biotinyl-Leu-oxazolone): 2.18
- self-aminoacylation (biotinyl-Ile-oxazolone): 1.3

Sequence: CCUCACUUCAAGUAAUCGGUC [Fam1B.1 aminoacylation ribozyme variant]
- self-aminoacylation (biotinyl-Val-oxazolone): 0.821
- self-aminoacylation (biotinyl-Met-oxazolone): 0.949
- self-aminoacylation (biotinyl-Phe-oxazolone): 14.2
- self-aminoacylation (biotinyl-Trp-oxazolone): 8.32
- self-aminoacylation (biotinyl-Leu-oxazolone): 1.17
- self-aminoacylation (biotinyl-Ile-oxazolone): 1

Sequence: CCGCACUUCAAGCAAUCGCUC [Fam1B.1 aminoacylation ribozyme variant]
- self-aminoacylation (biotinyl-Val-oxazolone): 2.73
- self-aminoacylation (biotinyl-Met-oxazolone): 1.8
- self-aminoacylation (biotinyl-Phe-oxazolone): 6.76
- self-aminoacylation (biotinyl-Trp-oxazolone): 2.73
- self-aminoacylation (biotinyl-Leu-oxazolone): 2.14
- self-aminoacylation (biotinyl-Ile-oxazolone): 1.93
